Series [1] has as its system T1, His-ArsR (Bacillus sp. CDB3), ORF:1234e343.
T1 sequence: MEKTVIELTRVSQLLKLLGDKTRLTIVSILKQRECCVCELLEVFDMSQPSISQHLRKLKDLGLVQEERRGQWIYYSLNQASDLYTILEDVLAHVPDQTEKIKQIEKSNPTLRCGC
Put plainly: EMSA. Particulars: 10 mM Tris-HCl pH 7.6, 80 mM KCl, 0.2 mM EDTA, 0.2 mM DTT, 10% glycerol, 0.75 µM BSA, 30 µL, on ice 30 min; 6% native acrylamide gel in TBE pH 8.3. (In general: A gel shift assay detects complexes by their altered migration in electrophoresis.)

The test system of series [2] is T2, His-ArsD (Bacillus sp. CDB3), ORF:bd8c364d.
T2 sequence: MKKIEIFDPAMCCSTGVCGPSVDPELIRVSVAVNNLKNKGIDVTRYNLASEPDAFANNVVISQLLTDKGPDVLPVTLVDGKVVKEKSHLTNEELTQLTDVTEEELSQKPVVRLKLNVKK
In words: EMSA. The note with it: 10 mM Tris-HCl pH 7.6, 80 mM KCl, 0.2 mM EDTA, 0.2 mM DTT, 10% glycerol, 0.75 µM BSA, 30 µL, on ice 30 min; 6% native acrylamide gel in TBE pH 8.3.

As for “TGAGACTGCTATGAAAGAAAACGGTGTTTCAACATTACGTTTTACATTTGATGGTGCTGGATGCTGTGGCCCTAGTTACGGTATTAATTTAGGTGAAGCACAAGAAAATGATGTCACAGAAACAGTCTAGAC (double strand) [proN]”, the binding result in series [1] is “no binding”.

For the sequence “TTCAGTTGAATATATAAGCGGTTAATTATATACTTATTTCAAGAGGGAGAGAAAATTAAATATGAATCCATTTAATGAATATTACGTTTAATTTTTACTCAACATATAAGTATATGCTTATGCAATTATGAAAAGGAGGTATAGATATGGCTCTAGATA (double strand) [proR]”, the binding entry in series [2] is “no binding”; in series [1], “binds”.

The record behind these values is PMC4562236.
